B1: BAP049-hum13 (antibody, human IgG4 S228P, kappa)
heavy: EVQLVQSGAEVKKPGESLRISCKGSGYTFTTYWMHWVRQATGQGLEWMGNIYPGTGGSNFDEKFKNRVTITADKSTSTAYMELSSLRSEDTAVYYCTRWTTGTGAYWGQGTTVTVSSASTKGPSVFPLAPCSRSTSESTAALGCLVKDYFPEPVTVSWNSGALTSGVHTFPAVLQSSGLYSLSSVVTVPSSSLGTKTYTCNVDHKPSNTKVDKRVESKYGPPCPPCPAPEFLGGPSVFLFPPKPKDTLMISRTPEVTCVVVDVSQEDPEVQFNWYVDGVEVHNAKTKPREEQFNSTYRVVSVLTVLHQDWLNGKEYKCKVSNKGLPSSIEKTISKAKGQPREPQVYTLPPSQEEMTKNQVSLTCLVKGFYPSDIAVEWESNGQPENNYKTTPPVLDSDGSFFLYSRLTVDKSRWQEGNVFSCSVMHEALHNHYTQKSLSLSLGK
light: DVVMTQSPLSLPVTLGQPASISCKSSQSLLDSGNQKNFLTWYQQKPGKAPKLLIYWASTRESGVPSRFSGSGSGTDFTFTISSLEAEDAATYYCQNDYSYPYTFGQGTKVEIKRTVAAPSVFIFPPSDEQLKSGTASVVCLLNNFYPREAKVQWKVDNALQSGNSQESVTEQDSKDSTYSLSSTLTLSKADYEKHKVYACEVTHQGLSSPVTKSFNRGEC
notes: also called Clone No. 13
B2: BAP049-hum16 (antibody, human IgG4 S228P, kappa, V domains shown)
VH: EVQLVQSGAEVKKPGESLRISCKGSGYTFTTYWMHWVRQAPGQGLEWMGNIYPGTGGSNFDEKFKNRFTISRDNSKNTLYLQMNSLRAEDTAVYYCTRWTTGTGAYWGQGTTVTVSS
VL: EIVLTQSPDFQSVTPKEKVTITCKSSQSLLDSGNQKNFLTWYQQKPGQAPRLLIYWASTRESGVPSRFSGSGSGTDFTFTISSLEAEDAATYYCQNDYSYPYTFGQGTKVEIKR
notes: also called Clone No. 16
B3: BAP049-hum03 (antibody, human IgG4 S228P, kappa, V domains shown)
VH: B2 VH with V37I, A40S, G42S, Q43R, M48L
VL: DIQMTQSPSSLSASVGDRVTITCKSSQSLLDSGNQKNFLTWYQQKPGQAPRLLIYWASTRESGIPPRFSGSGYGTDFTLTINNIESEDAAYYFCQNDYSYPYTFGQGTKVEIKR
notes: also called Clone No. 3
B4: BAP049-hum02 (antibody, human IgG4 S228P, kappa, V domains shown)
VH: EVQLVQSGAEVKKPGESLRISCKGSGYTFTTYWMHWVRQATGQGLEWMGNIYPGTGGSNFDEKFKNRVTITADKSTSTAYMELSSLRSEDTAVYYCTRWTTGTGAYWGQGTTVTVSS
VL: B3 VL
notes: also called Clone No. 2
B5: BAP049-hum12 (antibody, human IgG4 S228P, kappa, V domains shown)
VH: B4 VH
VL: DIQMTQSPSSLSASVGDRVTITCKSSQSLLDSGNQKNFLTWYLQKPGQSPQLLIYWASTRESGVPSRFSGSGSGTDFTFTISSLEAEDAATYYCQNDYSYPYTFGQGTKVEIKR
notes: also called Clone No. 12
B6: BAP049-hum10 (antibody, human IgG4 S228P, kappa)
heavy: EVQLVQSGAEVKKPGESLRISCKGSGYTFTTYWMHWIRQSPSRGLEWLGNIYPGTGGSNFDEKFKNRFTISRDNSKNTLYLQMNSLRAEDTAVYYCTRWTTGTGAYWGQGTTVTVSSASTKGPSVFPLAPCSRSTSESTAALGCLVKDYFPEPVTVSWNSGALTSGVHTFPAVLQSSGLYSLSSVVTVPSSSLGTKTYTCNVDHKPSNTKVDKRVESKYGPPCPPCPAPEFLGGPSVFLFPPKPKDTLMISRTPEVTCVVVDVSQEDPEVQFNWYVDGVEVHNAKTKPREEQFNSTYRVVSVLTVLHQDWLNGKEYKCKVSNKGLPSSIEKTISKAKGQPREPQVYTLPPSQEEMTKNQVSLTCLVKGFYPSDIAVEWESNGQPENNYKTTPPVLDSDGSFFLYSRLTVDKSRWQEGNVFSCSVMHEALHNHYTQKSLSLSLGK
light: EIVLTQSPATLSLSPGERATLSCKSSQSLLDSGNQKNFLTWYQQKPGQAPRLLIYWASTRESGVPSRFSGSGSGTDFTFTISSLEAEDAATYYCQNDYSYPYTFGQGTKVEIKRTVAAPSVFIFPPSDEQLKSGTASVVCLLNNFYPREAKVQWKVDNALQSGNSQESVTEQDSKDSTYSLSSTLTLSKADYEKHKVYACEVTHQGLSSPVTKSFNRGEC
notes: also called humanized BAP049 clone hum10
B7: BAP049-hum15 (antibody, human IgG4 S228P, kappa)
heavy: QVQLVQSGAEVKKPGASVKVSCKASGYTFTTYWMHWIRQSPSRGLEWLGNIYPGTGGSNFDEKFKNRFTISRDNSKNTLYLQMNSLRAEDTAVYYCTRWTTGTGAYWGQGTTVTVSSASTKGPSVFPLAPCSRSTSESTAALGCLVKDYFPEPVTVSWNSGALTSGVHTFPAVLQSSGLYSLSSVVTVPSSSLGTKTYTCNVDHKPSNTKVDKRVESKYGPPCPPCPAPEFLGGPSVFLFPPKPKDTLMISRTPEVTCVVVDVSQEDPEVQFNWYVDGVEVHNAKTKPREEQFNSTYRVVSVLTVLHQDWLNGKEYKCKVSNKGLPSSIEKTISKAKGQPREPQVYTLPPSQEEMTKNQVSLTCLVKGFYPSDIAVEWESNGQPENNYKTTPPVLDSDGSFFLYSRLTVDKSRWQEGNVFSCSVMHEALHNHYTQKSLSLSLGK
light: B6 light with A9D, T10F, L11Q, L13V, S14T, G16K, R18K, A19V, L21I, S22T
notes: also called Clone No. 15
B8: BAP049-hum11 (antibody, human IgG4 S228P, kappa)
heavy: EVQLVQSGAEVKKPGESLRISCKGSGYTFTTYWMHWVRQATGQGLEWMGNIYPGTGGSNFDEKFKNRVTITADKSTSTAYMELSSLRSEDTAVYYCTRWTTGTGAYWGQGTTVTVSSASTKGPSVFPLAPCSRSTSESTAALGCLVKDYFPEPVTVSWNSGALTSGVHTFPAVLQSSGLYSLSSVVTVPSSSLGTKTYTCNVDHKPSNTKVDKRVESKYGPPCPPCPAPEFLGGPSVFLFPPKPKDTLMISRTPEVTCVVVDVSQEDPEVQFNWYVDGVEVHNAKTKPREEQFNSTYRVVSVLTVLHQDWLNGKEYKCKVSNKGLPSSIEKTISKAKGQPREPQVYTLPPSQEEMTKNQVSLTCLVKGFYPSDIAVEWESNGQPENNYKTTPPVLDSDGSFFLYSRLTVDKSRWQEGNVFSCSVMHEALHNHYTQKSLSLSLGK
light: B6 light
notes: also called humanized BAP049 clone hum11
B9: BAP049-hum05 (antibody, human IgG4 S228P, kappa, V domains shown)
VH: B4 VH
VL: EIVLTQSPATLSLSPGERATLSCKSSQSLLDSGNQKNFLTWYQQKPGKAPKLLIYWASTRESGVPSRFSGSGSGTDFTFTISSLQPEDIATYYCQNDYSYPYTFGQGTKVEIKR
notes: also called humanized BAP049 clone hum05
B10: BAP049-hum01 (antibody, human IgG4 S228P, kappa, V domains shown)
VH: B4 VH
VL: B9 VL with K48Q, K51R, D76E, F79L, E87D, I89F
notes: also called humanized BAP049 clone hum01
B11: BAP049-hum08 (antibody, human IgG4 S228P, kappa)
heavy: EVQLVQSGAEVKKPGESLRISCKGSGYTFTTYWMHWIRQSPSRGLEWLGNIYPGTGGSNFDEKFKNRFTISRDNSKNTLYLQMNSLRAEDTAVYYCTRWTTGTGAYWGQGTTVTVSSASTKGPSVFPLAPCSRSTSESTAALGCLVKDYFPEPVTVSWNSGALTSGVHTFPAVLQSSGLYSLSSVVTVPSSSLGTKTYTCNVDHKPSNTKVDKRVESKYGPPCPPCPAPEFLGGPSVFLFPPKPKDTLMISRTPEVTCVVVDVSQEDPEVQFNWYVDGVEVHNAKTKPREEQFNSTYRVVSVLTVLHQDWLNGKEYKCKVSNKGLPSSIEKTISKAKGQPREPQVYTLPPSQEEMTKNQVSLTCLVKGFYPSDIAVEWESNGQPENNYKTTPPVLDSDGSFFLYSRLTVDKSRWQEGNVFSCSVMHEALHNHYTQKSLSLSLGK
light: B6 light with A9D, T10F, L11Q, L13V, S14T, G16K, R18K, A19V, L21I, S22T
notes: also called humanized BAP049 clone hum08
B12: BAP049-hum07 (antibody, human IgG4 S228P, kappa)
heavy: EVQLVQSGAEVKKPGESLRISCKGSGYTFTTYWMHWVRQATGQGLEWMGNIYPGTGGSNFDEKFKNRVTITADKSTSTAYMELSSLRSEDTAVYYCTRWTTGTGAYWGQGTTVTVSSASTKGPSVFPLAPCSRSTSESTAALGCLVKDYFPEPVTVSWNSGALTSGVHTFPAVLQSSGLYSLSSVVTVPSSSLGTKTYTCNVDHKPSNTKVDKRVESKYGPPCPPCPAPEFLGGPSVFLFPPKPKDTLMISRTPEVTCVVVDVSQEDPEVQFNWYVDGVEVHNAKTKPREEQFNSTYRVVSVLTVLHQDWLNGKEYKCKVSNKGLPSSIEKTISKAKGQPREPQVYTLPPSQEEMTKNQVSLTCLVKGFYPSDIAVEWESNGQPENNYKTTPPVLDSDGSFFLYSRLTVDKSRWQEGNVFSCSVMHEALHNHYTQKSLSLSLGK
light: B6 light with Q48K, R51K
notes: also called Clone No. 7
B13: BAP049-hum09 (antibody, human IgG4 S228P, kappa)
heavy: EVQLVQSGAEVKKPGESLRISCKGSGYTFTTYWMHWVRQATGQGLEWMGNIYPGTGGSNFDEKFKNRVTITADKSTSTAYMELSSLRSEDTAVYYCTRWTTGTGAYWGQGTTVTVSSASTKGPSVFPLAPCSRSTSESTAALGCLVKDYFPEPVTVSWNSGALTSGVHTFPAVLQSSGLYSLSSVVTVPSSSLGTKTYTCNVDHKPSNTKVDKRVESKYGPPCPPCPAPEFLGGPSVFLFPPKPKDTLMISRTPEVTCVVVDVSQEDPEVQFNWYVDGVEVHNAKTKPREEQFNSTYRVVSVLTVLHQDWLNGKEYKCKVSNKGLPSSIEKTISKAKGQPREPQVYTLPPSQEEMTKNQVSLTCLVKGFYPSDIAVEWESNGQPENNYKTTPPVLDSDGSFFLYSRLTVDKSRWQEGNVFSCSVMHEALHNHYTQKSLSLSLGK
light: B6 light with A9D, T10F, L11Q, L13V, S14T, G16K, R18K, A19V, L21I, S22T
notes: also called humanized BAP049 clone hum09
B14: BAP049-hum14 (antibody, human IgG4 S228P, kappa)
heavy: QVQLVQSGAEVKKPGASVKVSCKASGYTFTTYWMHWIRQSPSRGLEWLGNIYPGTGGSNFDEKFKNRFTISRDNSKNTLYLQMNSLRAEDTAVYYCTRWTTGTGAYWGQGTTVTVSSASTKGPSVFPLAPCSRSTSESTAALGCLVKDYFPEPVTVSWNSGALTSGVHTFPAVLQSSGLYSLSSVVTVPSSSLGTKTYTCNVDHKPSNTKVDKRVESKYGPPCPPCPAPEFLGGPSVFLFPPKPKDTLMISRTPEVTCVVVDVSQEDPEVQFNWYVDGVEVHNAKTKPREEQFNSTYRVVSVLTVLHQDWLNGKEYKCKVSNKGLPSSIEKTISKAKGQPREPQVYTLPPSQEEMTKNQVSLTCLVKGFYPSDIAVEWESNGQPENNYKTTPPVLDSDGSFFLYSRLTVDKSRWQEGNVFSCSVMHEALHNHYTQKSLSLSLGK
light: B6 light
notes: also called Clone No. 14
B15: BAP049-hum06 (antibody, human IgG4 S228P, kappa)
heavy: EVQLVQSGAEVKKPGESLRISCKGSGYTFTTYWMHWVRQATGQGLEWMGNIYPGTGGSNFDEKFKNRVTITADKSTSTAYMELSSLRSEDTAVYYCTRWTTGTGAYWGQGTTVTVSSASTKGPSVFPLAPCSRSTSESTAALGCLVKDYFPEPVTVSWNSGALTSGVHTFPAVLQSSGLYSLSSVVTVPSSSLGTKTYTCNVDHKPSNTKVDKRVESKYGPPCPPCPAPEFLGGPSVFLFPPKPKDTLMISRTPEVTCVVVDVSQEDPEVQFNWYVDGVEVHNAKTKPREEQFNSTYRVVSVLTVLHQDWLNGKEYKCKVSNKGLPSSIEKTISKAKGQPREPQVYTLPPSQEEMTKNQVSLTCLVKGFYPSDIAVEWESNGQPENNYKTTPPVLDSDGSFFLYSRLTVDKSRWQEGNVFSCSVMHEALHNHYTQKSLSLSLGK
light: B1 light with V2I, S7T, L15P, Q17E, K48Q, K51R
notes: also called Clone No. 6
B16: BAP049-hum04 (antibody, human IgG4 S228P, kappa, V domains shown)
VH: B2 VH with V37I, A40S, G42S, Q43R, M48L
VL: B9 VL
notes: also called Clone No. 4
B17: Chi mAb (Tyr) (antibody, human IgG4 S228P, kappa, V domains shown)
VH: QVQLQQSGSELVRPGASVKLSCKASGYTFTTYWMHWVRQRPGQGLEWIGNIYPGTGGSNFDEKFKNRTSLTVDTSSTTAYMHLASLTSEDSAVYYCTRWTTGTGAYWGQGTTVTVSS
VL: DIVMTQSPSSLTVTAGEKVTMSCKSSQSLLDSGNQKNFLTWYQQKPGQPPKLLIFWASTRESGVPDRFTGSGSVTDFTLTISSVQAEDLAVYYCQNDYSYPYTFGQGTKVEIKR
notes: also called BAP049-chi-Y; Chi (Tyr)
B18: Mu mAb (antibody, V domains shown)
VH: B17 VH with T112L, S117A
VL: DIVMTQSPSSLTVTAGEKVTMSCKSSQSLLDSGNQKNFLTWYQQKPGQPPKLLIFWASTRESGVPDRFTGSGSVTDFTLTISSVQAEDLAVYYCQNDYSYPCTFGGGTKLEIK
notes: also called murine anti-PD-1 mAb BAP049; Mu mAb control

Where a chain is given by its changes, count along the chain named. A value given as a limit tells only on which side of the number the result lay.

T1 sequence (Q15116 25-288 limits assumed): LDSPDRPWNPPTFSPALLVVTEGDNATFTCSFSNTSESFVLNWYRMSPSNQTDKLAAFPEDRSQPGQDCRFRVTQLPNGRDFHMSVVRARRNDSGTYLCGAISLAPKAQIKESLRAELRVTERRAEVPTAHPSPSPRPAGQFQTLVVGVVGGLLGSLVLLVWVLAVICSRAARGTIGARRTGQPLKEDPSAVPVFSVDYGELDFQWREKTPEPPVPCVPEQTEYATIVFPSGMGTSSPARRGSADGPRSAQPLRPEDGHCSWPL

The first assay addresses T1, Programmed Death 1 (PD-1) (UniProt Q15116 25-288, limits assumed). The experiment in a line: rank of the clone in the competition binding assay with labeled murine mAb BAP049, 2nd experiment; higher number = worse.
On to B1, for which the “Competition Binding, 2nd exp. (rank)” value was determined as 1.

As for B2, the “Competition Binding, 2nd exp. (rank)” value was determined as 15.

On to B3, for which the “Competition Binding, 2nd exp. (rank)” value turned out to be 14.

With B4, the “Competition Binding, 2nd exp. (rank)” value came to 2.

On to B5, for which the “Competition Binding, 2nd exp. (rank)” value was 16.

Take B6: the “Competition Binding, 2nd exp. (rank)” value was over 4.

Regarding B7, the “Competition Binding, 2nd exp. (rank)” value was found to be 15.

In the case of B8, the “Competition Binding, 2nd exp. (rank)” value was over 4.

B9: the “Competition Binding, 2nd exp. (rank)” value is over 4.

As to B10, the “Competition Binding, 2nd exp. (rank)” value was 2.

Turning to B11, the “Competition Binding, 2nd exp. (rank)” value is 4.

With B12, the “Competition Binding, 2nd exp. (rank)” value was over 4.

For the molecule B13, the “Competition Binding, 2nd exp. (rank)” value worked out at 4.

B14: the “Competition Binding, 2nd exp. (rank)” value was 15.

For the molecule B15, the “Competition Binding, 2nd exp. (rank)” value came to 3.

With B16, the “Competition Binding, 2nd exp. (rank)” value amounted to 15.

Another assay deals with T1, Programmed Death 1 (PD-1). The experiment in a line: FACS blocking of ligand-Ig binding to PD-1, MFI of bound ligand; ligand by the legend paragraph 125 'PD-L1-Ig and PD-L2-Ig' (no ligand named on the sheet; FIG. 8B is PD-L2-Ig, so most likely PD-L1-Ig); cells not named.
Consider B17, for which the “IC50 (read off the curve)” value is about 0.8 µg/mL.

As to B18, the “IC50 (read off the curve)” value is about 0.6 µg/mL.

For B13, the “IC50 (read off the curve)” value was about 0.7 µg/mL.

The target of a further assay is T1, Programmed Death 1 (PD-1). The experiment in a line: rank of the clone in the competition binding assay with labeled murine mAb BAP049, 1st experiment; higher number = worse.
Turning to B1, the “Competition Binding, 1st exp. (rank)” value turned out to be 1.

Turning to B2, the “Competition Binding, 1st exp. (rank)” value was 16.

Turning to B3, the “Competition Binding, 1st exp. (rank)” value came out at 8.

On to B4, for which the “Competition Binding, 1st exp. (rank)” value worked out at 3.

In the case of B5, the “Competition Binding, 1st exp. (rank)” value is 8.

For the molecule B6, the “Competition Binding, 1st exp. (rank)” value came to 6.

In the case of B7, the “Competition Binding, 1st exp. (rank)” value is 7.

Regarding B8, the “Competition Binding, 1st exp. (rank)” value was found to be 4.

Consider B9, for which the “Competition Binding, 1st exp. (rank)” value came to 5.

As for B10, the “Competition Binding, 1st exp. (rank)” value turned out to be 7.

On to B11, for which the “Competition Binding, 1st exp. (rank)” value turned out to be 7.

Regarding B12, the “Competition Binding, 1st exp. (rank)” value was 7.

For B13, the “Competition Binding, 1st exp. (rank)” value was 2.

For B14, the “Competition Binding, 1st exp. (rank)” value stood at 7.

B15: the “Competition Binding, 1st exp. (rank)” value amounted to 7.

As for B16, the “Competition Binding, 1st exp. (rank)” value is 15.

For a further assay, the target named is T1, Programmed Death 1 (PD-1). The experiment in a line: rank of the clone among the 16 humanized clones by FACS binding data; higher number = worse.
As for B1, the “Ranking, FACS data” value turned out to be 6.

On to B2, for which the “Ranking, FACS data” value was determined as 15.

On to B3, for which the “Ranking, FACS data” value stood at 7.

Turning to B4, the “Ranking, FACS data” value was 6.

Turning to B5, the “Ranking, FACS data” value was 3.

As for B6, the “Ranking, FACS data” value stood at 7.

For B7, the “Ranking, FACS data” value was 6.

Take B8: the “Ranking, FACS data” value was 6.

Take B9: the “Ranking, FACS data” value is 5.

For the molecule B10, the “Ranking, FACS data” value was found to be 2.

In the case of B11, the “Ranking, FACS data” value came to 7.

Take B12: the “Ranking, FACS data” value was 4.

On to B13, for which the “Ranking, FACS data” value came out at 7.

Consider B14, for which the “Ranking, FACS data” value is 16.

With B15, the “Ranking, FACS data” value amounted to 1.

On to B16, for which the “Ranking, FACS data” value worked out at 14.
